Residue numbers refer to the chain shown, from its start.

The target in one assay is T1, SARS-CoV-2 S1 subunit (SARS-CoV-2, UniProt P0DTC2 16-685).
T1 construct: domain: S1 subunit
Description: ELISA, coated S1 protein, antibody at 1 ug/mL. The protocol:
(§1) Polystyrene microplates (Corning) were coated overnight with 0.1 or 1 μg/mL of SARS-CoV-2 S, S1 or RBD protein (Sino Biological). After washing with PBS containing 0.2% Tween 20, the plates were blocked using 2% BSA (Sigma Aldrich) in PBST for 1 hour at 37° C. Following washing with PBST, testing antibodies (1 ug/mL) were added to each well and incubated at 37° C. for 1 hour. After washing with PBST, HRP-conjugated goat anti-human IgG antibody was added at the dilution of 1:5000 and incubated at 37° C. for 1 hour. After washing, 3,3′,5,5′-Tetramethylbenzidine (TMB) substrate solution was added to the microplate and incubated at room temperature for 6 min, followed by adding 2M H₂SO₄ to stop the reaction. The absorbance was detected at 450 nm.

Assay [1] has as its target SARS-CoV-2 spike protein (S protein) (SARS-CoV-2, UniProt P0DTC2 16-1213). Briefly: ELISA, coated S protein, antibody at 1 ug/mL. How it is done: as §1
A general note: ELISA stands for enzyme-linked immunosorbent assay.

Assay [2] deals with SARS-CoV-2 RBD protein (receptor-binding domain of the spike protein) (SARS-CoV-2, UniProt P0DTC2 319-541). Briefly: ELISA, coated RBD protein, antibody at 1 ug/mL. The protocol:
as §1

B1: Antibody 37G2 (antibody, V domains shown)
VH: QVQLVQSGAEVKKPGSSVKVSCKASGGTFSSYAITWVRQAPGQGLEWMGGIIPIFGTANFAQKFQGRVTITADESTSTAYMELSSLRSEDTAVYYCAHLGGFADPFDYWGQGTLVTVSS
VL: EIVLTQSPATLSLSPGERATLSCRASQSVSNYLAWYQQKAGQAPRVLIYDAFNRATGIPARFSGSGSGTDFTLTISSLEPEDFAVYYCQQRSNWPPRITFGQGTRLEIK
As for B1, the binding result in the assay with SARS-CoV-2 S1 subunit was “no binding (tested: 1 ug/mL)”.

B2: Antibody 31C2 (antibody, V domains shown)
VH: QVQLVQSGAEVKKPGSSVKVSCKASGGTFSSYAISWVRQAPGQGLEWMGGIIPIFGTTNYAQKFQGRVTITADESTSTAYMELNSLRSEDTAVYYCAGRSAYGDKGYYFDYWGQGTLVTVSS
VL: B1 VL with Y32F, A40P, V46L, F52S, E79Q, R97Q, I98E, R105K, L106V
For the molecule B2, the binding result in the assay with SARS-CoV-2 S1 subunit is reported as “no binding (tested: 1 ug/mL)”.

B3: Antibody 15A7 (antibody, V domains shown)
VH: QVQLVQSGAEVKKPGASVKVSCKASGYTFTSYDINWVRQASGQGLEWMGWMNPNSANPGYAQKFQGRVTMTRNTSISTAFMELSSLRSDDTAVYYCARARVTIHYDILTGYYSNAFDIWGQGTMVAVSS
VL: DIQMTQSPSSLSASVGDRVTITCRASQTISSYLNWYQQKPGKAPKLLIYAASSLQSGVPSRFSGSGSGADFTLTISSLQPEDFATYYCQQSYTTFMYTFGQGTMLEIK
On to B3, for which the binding result (in assay [1]; in assay [2]; with SARS-CoV-2 S1 subunit) was “binds” throughout.

Source of the values: patent publication US20220073594A1 (NEWSOARA BIOPHARMA, published 2022).
